A word on the Kd: it is a measure of binding affinity in units of concentration.

Data set [1] deals with T1, SaCodY (Staphylococcus aureus, UniProt Q2FHI3 1-257).
T1 sequence: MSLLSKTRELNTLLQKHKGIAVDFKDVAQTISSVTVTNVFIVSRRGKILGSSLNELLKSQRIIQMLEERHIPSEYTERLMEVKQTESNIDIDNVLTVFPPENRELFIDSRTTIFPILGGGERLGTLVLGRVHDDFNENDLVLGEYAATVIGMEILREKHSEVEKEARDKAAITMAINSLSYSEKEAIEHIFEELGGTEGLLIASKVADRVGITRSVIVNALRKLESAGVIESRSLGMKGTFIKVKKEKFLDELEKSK
The data set can be described thus: BLI; 1 uM SaCodY; Ile + GTP (implied); BLI: 20 mM Tris-HCl pH 8, 150 mM NaCl, 2 mM MgCl2, 0.1% NP-40, 25 C; 2 mM GTP and/or 10 mM Ile/Leu/Val as stated. The following applies: protein: recombinant; tags: His6 removed by TEV; N-terminal Gly-Ala remnant; chain copies: 4; label: 5'-biotin on one strand; 3-nt overhang at biotinylated 5' end. On the technique in general: Biolayer interferometry detects binding as a change in optical thickness at a sensor tip.

For data set [2], the target named is T2, EfCodY (Enterococcus faecalis, UniProt Q834K5 1-260).
T2 sequence: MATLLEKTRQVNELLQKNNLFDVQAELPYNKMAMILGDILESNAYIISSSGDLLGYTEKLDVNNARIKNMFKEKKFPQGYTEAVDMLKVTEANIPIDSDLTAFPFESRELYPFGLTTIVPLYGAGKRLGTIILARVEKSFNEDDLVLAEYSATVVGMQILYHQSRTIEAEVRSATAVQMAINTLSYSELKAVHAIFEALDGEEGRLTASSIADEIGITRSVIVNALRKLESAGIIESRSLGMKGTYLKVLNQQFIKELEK
Nature of the data set: BLI; 1 uM protein; 10 mM Leu; BLI: 20 mM Tris-HCl pH 8, 150 mM NaCl, 2 mM MgCl2, 0.1% NP-40, 25 C; 2 mM GTP and/or 10 mM Ile/Leu/Val as stated. The following applies: protein: recombinant; tags: His6 removed by TEV; N-terminal Gly-Ala remnant; chain copies: 4; label: 5'-biotin on one strand; 3-nt overhang at biotinylated 5' end.

The target in data set [3] is T1, SaCodY. Nature of the data set: BLI; 1 uM protein; 10 mM Ile + 2 mM GTP; BLI: 20 mM Tris-HCl pH 8, 150 mM NaCl, 2 mM MgCl2, 0.1% NP-40, 25 C; 2 mM GTP and/or 10 mM Ile/Leu/Val as stated. The note with it: protein: recombinant; tags: His6 removed by TEV; N-terminal Gly-Ala remnant; chain copies: 4; label: 5'-biotin on one strand; 3-nt overhang at biotinylated 5' end.

The next data set addresses EfCodY quadruple mutant (Enterococcus faecalis, UniProt Q834K5 1-260, Y186A;R238A;L240A;Y246A). Nature of the data set: BLI; 8 uM protein, 10 mM Leu; BLI: 20 mM Tris-HCl pH 8, 150 mM NaCl, 2 mM MgCl2, 0.1% NP-40, 25 C; 2 mM GTP and/or 10 mM Ile/Leu/Val as stated. The following applies: protein: recombinant; tags: His6 removed by TEV; N-terminal Gly-Ala remnant; chain copies: 2; label: 5'-biotin on one strand; 3-nt overhang at biotinylated 5' end.

For data set [4], the target named is T1, SaCodY. The data set can be described thus: X-ray crystallography; Ile + GTP; two dimers per duplex; BLI: 20 mM Tris-HCl pH 8, 150 mM NaCl, 2 mM MgCl2, 0.1% NP-40, 25 C; 2 mM GTP and/or 10 mM Ile/Leu/Val as stated. The note with it: protein: recombinant; tags: His6 removed by TEV; N-terminal Gly-Ala remnant; chain copies: 4; blunt.
Data set [5] deals with T2, EfCodY. The data set can be described thus: X-ray crystallography; Leu (bound in dimer 1 only); two dimers per duplex; BLI: 20 mM Tris-HCl pH 8, 150 mM NaCl, 2 mM MgCl2, 0.1% NP-40, 25 C; 2 mM GTP and/or 10 mM Ile/Leu/Val as stated. The note with it: protein: recombinant; tags: His6 removed by TEV; N-terminal Gly-Ala remnant; chain copies: 4; blunt.
Data set [6] has as its target T2, EfCodY. The data set can be described thus: BLI; 10 mM Leu; BLI: 20 mM Tris-HCl pH 8, 150 mM NaCl, 2 mM MgCl2, 0.1% NP-40, 25 C; 2 mM GTP and/or 10 mM Ile/Leu/Val as stated. The note with it: protein: recombinant; tags: His6 removed by TEV; N-terminal Gly-Ala remnant; chain copies: 4; label: 5'-biotin on one strand; 3-nt overhang at biotinylated 5' end.
For data set [7], the target named is T1, SaCodY. The data set can be described thus: BLI; Ile + GTP (implied); BLI: 20 mM Tris-HCl pH 8, 150 mM NaCl, 2 mM MgCl2, 0.1% NP-40, 25 C; 2 mM GTP and/or 10 mM Ile/Leu/Val as stated. The note with it: protein: recombinant; tags: His6 removed by TEV; N-terminal Gly-Ala remnant; chain copies: 4; label: 5'-biotin on one strand; 3-nt overhang at biotinylated 5' end.

B1: hutP2 single site (dsDNA)
DNA 1: AGTTCAGAATTTTTAGGAATTGAGTG
DNA 2: CACTCAATTCCTAAAAATTCTGAACT
For the molecule B1, the binding result in the data set with SaCodY [1] is reported as “no binding”.

B2: consensus T>G (dsDNA)
DNA 1: CCGCCGGATAATTTGCAGCATTTGCAGCAAATTTAGCCG
DNA 2: CGGCTAAATTTGCTGCAAATGCTGCAAATTATCCGGCGG
For the molecule B2, the binding result with EfCodY [2] and with SaCodY [3] was “no binding” in each case.

B3: 24-nt sequence-optimized overlapping sites (consensus) (dsDNA)
DNA 1: CCGCCGGATAATTTTCAGAATTTTCAGAAAATTTAGCCG
DNA 2: CGGCTAAATTTTCTGAAAATTCTGAAAATTATCCGGCGG
B3: in the data set with EfCodY quadruple mutant, the binding result is “no binding”.

B4: 30-bp crystallization DNA (dsDNA)
DNA 1: GATAATTTTCAGAATTTTCAGAAAATTTAG
DNA 2: CTAAATTTTCTGAAAATTCTGAAAATTATC
Turning to B4, the binding result in the data set with SaCodY [4] and with EfCodY [5] was “binds” throughout.

B5: hutP operator overlapping sites (dsDNA)
DNA 1: AGTTAATAGTTATCAGAATTTTTAGGAATTGAGTG
DNA 2: CACTCAATTCCTAAAAATTCTGATAACTATTAACT
As to B5, the binding result with EfCodY [6] is “binds”. Moreover, the Kd with SaCodY [7] stood at 598 nM.

B6: hutP1 single site (dsDNA)
DNA 1: AGTTAATAGTTATCAGAATTTTTAGG
DNA 2: CCTAAAAATTCTGATAACTATTAACT
In the case of B6, the dissociation constant Kd with SaCodY [7] came to 1230 nM.

The record behind these values is publication PMC10415144, “Structural insights into CodY activation and DNA recognition”.
